Measured values taken from article PMC8319299.

Legend:
[1] = test system: PRC2 core (EZH2-EED-SUZ12-RBBP4) (Homo sapiens), Q15910-2+O75530+Q15022+Q09028; assay: EMSA; conditions: 50 mM Tris-HCl pH 7.5 (25 C), 100 mM KCl, 2 mM 2-mercaptoethanol, 0.1 mg/mL BSA, 0.05% NP-40; FA at 30 C; nucleosome EMSA with 5% glycerol at 4 C (+5 ng/uL …)
[2] = test system: PRC2-PALI1 PIR (Homo sapiens), Q15910-2+O75530+Q15022+Q09028+Q96JN0-3; assay: EMSA; conditions: 50 mM Tris-HCl pH 7.5 (25 C), 100 mM KCl, 2 mM 2-mercaptoethanol, 0.1 mg/mL BSA, 0.05% NP-40; FA at 30 C; nucleosome EMSA with 5% glycerol at 4 C (+5 ng/uL …)
[3] = test system: PRC2-PALI1 PIR-long (Homo sapiens), Q15910-2+O75530+Q15022+Q09028+Q96JN0-3; assay: EMSA; conditions: 50 mM Tris-HCl pH 7.5 (25 C), 100 mM KCl, 2 mM 2-mercaptoethanol, 0.1 mg/mL BSA, 0.05% NP-40; FA at 30 C; nucleosome EMSA with 5% glycerol at 4 C (+5 ng/uL …)
[4] = biological target: EED (amino acids 40-441) (human) (UniProt O75530); assay: fluorescence polarisation; fluorescence anisotropy displacement titration: 2-fold serial dilutions of unlabelled peptide with 10 µM EED and 40 nM 5-FAM labelled JARID2-K116me3 peptide; same buffer, 30 °C; Kd of the unlabelled peptide from a fit
Sequence of EED (amino acids 40-441) (human) (O75530 40-441): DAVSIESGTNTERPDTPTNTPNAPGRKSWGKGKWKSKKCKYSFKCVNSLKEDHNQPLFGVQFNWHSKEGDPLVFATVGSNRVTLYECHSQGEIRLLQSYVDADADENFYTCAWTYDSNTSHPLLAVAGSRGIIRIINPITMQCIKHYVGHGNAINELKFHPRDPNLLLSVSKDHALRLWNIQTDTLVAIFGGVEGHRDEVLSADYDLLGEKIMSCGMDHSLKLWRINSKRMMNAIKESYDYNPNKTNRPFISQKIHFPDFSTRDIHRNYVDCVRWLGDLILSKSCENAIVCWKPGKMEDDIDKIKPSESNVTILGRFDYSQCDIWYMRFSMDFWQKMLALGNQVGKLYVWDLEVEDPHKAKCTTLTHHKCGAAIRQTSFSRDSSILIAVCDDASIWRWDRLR

Sequence of PRC2 core (EZH2-EED-SUZ12-RBBP4) (Homo sapiens), Q15910-2+O75530+Q15022+Q09028 (Q15910 other isoform, or with tags, fused parts or gaps, chain 1 of 4): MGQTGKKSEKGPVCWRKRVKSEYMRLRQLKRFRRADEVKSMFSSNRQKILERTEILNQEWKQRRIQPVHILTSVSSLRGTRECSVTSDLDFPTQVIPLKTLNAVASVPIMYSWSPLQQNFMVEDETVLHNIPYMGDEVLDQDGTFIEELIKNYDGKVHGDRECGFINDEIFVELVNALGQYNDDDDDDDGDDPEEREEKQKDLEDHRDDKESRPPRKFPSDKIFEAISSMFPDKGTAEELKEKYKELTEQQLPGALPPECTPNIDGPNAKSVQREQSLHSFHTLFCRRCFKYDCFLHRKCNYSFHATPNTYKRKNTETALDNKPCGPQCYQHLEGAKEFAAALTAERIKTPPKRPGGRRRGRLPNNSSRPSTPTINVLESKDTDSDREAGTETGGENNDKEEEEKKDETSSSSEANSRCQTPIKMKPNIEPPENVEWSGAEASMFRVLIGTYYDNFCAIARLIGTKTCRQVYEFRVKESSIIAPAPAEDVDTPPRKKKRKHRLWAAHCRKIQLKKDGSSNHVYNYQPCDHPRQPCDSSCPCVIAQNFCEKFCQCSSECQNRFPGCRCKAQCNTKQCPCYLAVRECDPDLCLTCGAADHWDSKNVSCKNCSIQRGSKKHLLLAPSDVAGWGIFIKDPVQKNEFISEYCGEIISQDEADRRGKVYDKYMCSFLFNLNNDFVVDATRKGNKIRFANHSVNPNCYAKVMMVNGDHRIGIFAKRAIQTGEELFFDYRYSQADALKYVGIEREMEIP
Sequence of PRC2 core (EZH2-EED-SUZ12-RBBP4) (Homo sapiens), Q15910-2+O75530+Q15022+Q09028 (O75530 whole entry, chain 2 of 4): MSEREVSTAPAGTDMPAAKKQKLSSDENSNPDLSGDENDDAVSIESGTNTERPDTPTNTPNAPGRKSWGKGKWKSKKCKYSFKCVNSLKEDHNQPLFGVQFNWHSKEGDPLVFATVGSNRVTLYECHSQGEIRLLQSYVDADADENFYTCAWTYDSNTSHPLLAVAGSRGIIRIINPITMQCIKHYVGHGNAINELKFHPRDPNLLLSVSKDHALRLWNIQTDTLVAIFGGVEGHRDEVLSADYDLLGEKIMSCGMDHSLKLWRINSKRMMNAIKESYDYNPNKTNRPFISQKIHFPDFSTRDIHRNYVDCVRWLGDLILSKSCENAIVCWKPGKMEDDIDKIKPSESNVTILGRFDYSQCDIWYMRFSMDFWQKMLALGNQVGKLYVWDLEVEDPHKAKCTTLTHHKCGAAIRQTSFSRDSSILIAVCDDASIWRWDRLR
Sequence of PRC2 core (EZH2-EED-SUZ12-RBBP4) (Homo sapiens), Q15910-2+O75530+Q15022+Q09028 (Q15022 whole entry, chain 3 of 4): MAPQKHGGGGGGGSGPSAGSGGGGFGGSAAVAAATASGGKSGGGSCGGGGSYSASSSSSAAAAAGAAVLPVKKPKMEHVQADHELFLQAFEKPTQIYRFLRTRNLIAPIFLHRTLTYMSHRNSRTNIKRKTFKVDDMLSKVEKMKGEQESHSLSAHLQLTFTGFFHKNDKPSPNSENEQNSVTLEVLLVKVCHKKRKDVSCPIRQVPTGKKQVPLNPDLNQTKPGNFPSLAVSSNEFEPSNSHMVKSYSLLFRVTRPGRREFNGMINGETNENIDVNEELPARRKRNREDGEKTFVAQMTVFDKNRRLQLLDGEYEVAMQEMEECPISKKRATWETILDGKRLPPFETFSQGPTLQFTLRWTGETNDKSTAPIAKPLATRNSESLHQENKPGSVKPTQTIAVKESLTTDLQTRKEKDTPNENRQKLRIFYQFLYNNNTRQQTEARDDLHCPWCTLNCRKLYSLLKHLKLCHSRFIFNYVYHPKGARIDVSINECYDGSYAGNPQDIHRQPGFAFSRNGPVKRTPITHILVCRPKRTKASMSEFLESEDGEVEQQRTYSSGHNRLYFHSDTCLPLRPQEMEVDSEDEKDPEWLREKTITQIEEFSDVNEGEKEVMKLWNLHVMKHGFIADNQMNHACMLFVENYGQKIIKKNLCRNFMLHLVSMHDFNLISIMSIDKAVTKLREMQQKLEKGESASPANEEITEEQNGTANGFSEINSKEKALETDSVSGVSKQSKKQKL
Sequence of PRC2 core (EZH2-EED-SUZ12-RBBP4) (Homo sapiens), Q15910-2+O75530+Q15022+Q09028 (Q09028 whole entry, chain 4 of 4): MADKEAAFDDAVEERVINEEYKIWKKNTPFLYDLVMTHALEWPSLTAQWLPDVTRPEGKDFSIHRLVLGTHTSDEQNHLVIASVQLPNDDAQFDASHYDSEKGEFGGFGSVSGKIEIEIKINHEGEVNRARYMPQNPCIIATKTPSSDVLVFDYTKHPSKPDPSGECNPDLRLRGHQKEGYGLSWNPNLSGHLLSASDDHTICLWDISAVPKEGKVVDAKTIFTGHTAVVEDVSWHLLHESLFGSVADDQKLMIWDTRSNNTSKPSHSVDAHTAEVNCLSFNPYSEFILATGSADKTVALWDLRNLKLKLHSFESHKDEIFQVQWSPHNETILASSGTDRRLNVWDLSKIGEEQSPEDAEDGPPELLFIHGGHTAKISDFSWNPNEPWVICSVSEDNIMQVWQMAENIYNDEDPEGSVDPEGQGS

Substance	Kd [1] [nM]	Kd [2] [nM]	other results
ACCTCGCGAATGCATCTAGATGATATCGAGAATCCCGGTGCCGAGGCCGCTCAATTGGTCGTAGACAGCTCTAGCACCGCTTAAACGCACGTACGCGCTGTCCCCCGCGTTTTAACCGCCAAGGGGATTACTCCCTAGTCTCCAGGCACGTGTCAGATATATACATCCGATATCGGCGCCCT (double strand) [NCP182, H2A-Cy5]	1410	17.1	
ACCTCGCGAATGCATCTAGATGATATCGAGAATCCCGGTGCCGAGGCCGCTCAATTGGTCGTAGACAGCTCTAGCACCGCTTAAACGCACGTACGCGCTGTCCCCCGCGTTTTAACCGCCAAGGGGATTACTCCCTAGTCTCCAGGCACGTGTCAGATATATACATCCGATATCGGCGCCCT (double strand) [mononucleosome 182 bp, Cy5-DNA]	330		Kd [3]: 19 nM
CTGGAGAATCCCGGTGCCGAGGCCGCTCAATTGGTCGTAGACAGCTCTAGCACCGCTTAAACGCACGTACGCGCTGTCCCCCGCGTTTTAACCGCCAAGGGGATTACTCCCTAGTCTCCAGGCACGTGTCAGATATATACATCCTGT (double strand) [NCP147, H2A-Cy5]	2560	48.5	
PALI1-K1214me3 peptide			fold lower affinity than PALI1-K1219me3 and PALI1-K1241me3 [4]: 4 fold
PALI2-K1558me3 peptide			Kd [4]: 8810 nM
